Measured values as given in IntAct's records for PubMed 28712572.

Biological target: gbrap_human GABARAP (UniProt O95166)
Sequence (O95166 whole entry): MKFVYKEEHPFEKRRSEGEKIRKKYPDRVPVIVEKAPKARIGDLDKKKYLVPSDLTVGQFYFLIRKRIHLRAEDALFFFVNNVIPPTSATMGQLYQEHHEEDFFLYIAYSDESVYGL

effect of a mutation on the interaction | Substance
decreasing interaction strength | Pericentriolar material 1 protein (Homo sapiens), Q15154 D1962A;F1963A;V1966A

Biological target: gbrap_human GABARAP (UniProt O95166)
Remark: another data set of the same source

effect of a mutation on the interaction | Substance
with no effect | Pericentriolar material 1 protein (Homo sapiens), Q15154 D1962A;F1963A;V1966A

Biological target: gbrap_human GABARAP (UniProt O95166)
Remark: another data set of the same source

Substance | effect of a mutation on the interaction
Pericentriolar material 1 protein (Homo sapiens), Q15154 V1966I | with no effect
Pericentriolar material 1 protein (Homo sapiens), Q15154 V1966L | with no effect
Pericentriolar material 1 protein (Homo sapiens), Q15154 V1966P | disrupting interaction strength
Pericentriolar material 1 protein (Homo sapiens), Q15154 V1966Q | disrupting interaction strength
Pericentriolar material 1 protein (Homo sapiens), Q15154 V1966T | disrupting interaction strength
Pericentriolar material 1 protein (Homo sapiens), Q15154 V1966W | disrupting interaction strength

Next, values leading:

effect of a mutation on the interaction | Substance
disrupting interaction strength | Pericentriolar material 1 protein (Homo sapiens), Q15154 V1966K
disrupting interaction strength | Pericentriolar material 1 protein (Homo sapiens), Q15154 V1966M
disrupting interaction strength | Pericentriolar material 1 protein (Homo sapiens), Q15154 V1966N
disrupting interaction strength | Pericentriolar material 1 protein (Homo sapiens), Q15154 V1966R
disrupting interaction strength | Pericentriolar material 1 protein (Homo sapiens), Q15154 V1966S
decreasing interaction strength | Pericentriolar material 1 protein (Homo sapiens), Q15154 V1966Y
